Patent publication US20260242478A1 (published 2026)

Assays:
[1] = target: Anti-CD28 Fab (SEQ ID NOs: 696, 697); assay: phage binding ELISA on captured anti-CD28 Fab, wells pre-incubated with CD28 antigen as competitor
Target sequence in this assay (VH, as listed by the source, chain 1 of 2): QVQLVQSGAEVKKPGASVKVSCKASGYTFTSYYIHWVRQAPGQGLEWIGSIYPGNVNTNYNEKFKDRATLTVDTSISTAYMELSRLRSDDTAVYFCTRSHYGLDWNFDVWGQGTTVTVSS
Target sequence in this assay (VL, as listed by the source, chain 2 of 2): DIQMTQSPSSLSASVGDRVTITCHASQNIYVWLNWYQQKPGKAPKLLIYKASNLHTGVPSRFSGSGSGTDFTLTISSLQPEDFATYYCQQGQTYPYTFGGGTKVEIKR
Protocol: (§1) Clonal phage were harvested as crude supematants and screened via standard ELISAs. […] Prior to the addition of clonal phage, wells were incubated with blocking buffer and CD28 antigen or blocking buffer alone. Without washing or aspirating, clonal phage supematants were then added to the wells and incubated for a short time. Wells were then washed followed by detection of bound phage using a horse radish conjugated anti-M13 antibody. Clonal phage of interest were then sent for sequence analysis.

[2] = target: Anti-CD28 Fab (SEQ ID NOs: 696, 697); assay: phage binding ELISA; biotinylated anti-CD28 Fab on neutravidin plate, clonal phage, anti-M13 HRP detection
Target sequence in this assay (VH, as listed by the source, chain 1 of 2): as the sequence (VH, as listed by the source, chain 1 of 2) above
Target sequence in this assay (VL, as listed by the source, chain 2 of 2): as the sequence (VL, as listed by the source, chain 2 of 2) above
Protocol: as §1

[3] = target: T1, Anti-CD28 Fab (SEQ ID NOs: 696, 697); assay: phage binding ELISA on captured Fab; wells pre-incubated with CD28 antigen as competitor
T1 construct: In the phage ELISA the Fab was biotinylated and captured on neutravidin coated plates
T1 sequence (VH, as listed by the source, chain 1 of 2): as the sequence (VH, as listed by the source, chain 1 of 2) above
T1 sequence (VL, as listed by the source, chain 2 of 2): as the sequence (VL, as listed by the source, chain 2 of 2) above
Protocol: (§2) Clonal phage were harvested as crude supematants and screened via standard ELISAs. […] Prior to the addition of clonal phage, wells were incubated with blocking buffer and CD28 antigen or blocking buffer alone. Without washing or aspirating, clonal phage supematants were then added to the wells and incubated for a short time. Wells were then washed followed by detection of bound phage using a horse radish conjugated anti-M13 antibody.

[4] = target: T1, Anti-CD28 Fab (SEQ ID NOs: 696, 697); assay: phage binding ELISA; biotinylated Fab on neutravidin plate, clonal phage supernatant, anti-M13 HRP detection
Protocol: as §1

[5] = target: T2, Anti-CD28 Fab (SEQ ID NOs: 696, 697); assay: phage binding ELISA on captured Fab; CD28 antigen as competitor
T2 construct: In the phage ELISA the Fab was biotinylated and captured on neutravidin coated plates
T2 sequence (VH, as listed by the source, chain 1 of 2): as the sequence (VH, as listed by the source, chain 1 of 2) above
T2 sequence (VL, as listed by the source, chain 2 of 2): as the sequence (VL, as listed by the source, chain 2 of 2) above
Protocol: as §2

[6] = target: T2, Anti-CD28 Fab (SEQ ID NOs: 696, 697); assay: phage binding ELISA; biotinylated Fab on neutravidin plate, anti-M13 HRP detection
Protocol: as §2

| Binder | Anti-CD28 Fab signal in the presence of CD28 (phage binding ELISA) [1] | Anti-CD28 Fab signal (phage binding ELISA) [2] | Anti-CD28 Fab signal in the presence of CD28 [3] | Anti-CD28 Fab (SEQ ID NOs: 696, 697) signal [4] | Anti-CD28 Fab signal in the presence of CD28 [5] | Anti-CD28 Fab (SEQ ID NOs: 696, 697) signal [6] |
| --- | --- | --- | --- | --- | --- | --- |
| SCAAGAHWSWPVCF (Tested as clonal phage supernatant) [Phage-1639 (peptide-92 library clone, SEQ ID NO: 1935)] | 0.08 | 1.2 |  |  |  |  |
| TCSAGATYSWPLCF [Phage-1650] |  |  | 0.09 | 1.12 |  |  |
| QCAAGATYPWPVCL [Phage-1647] |  |  | 0.09 | 1.13 |  |  |
| SCSAVFSYRWPKCL (Tested as clonal phage supernatant) [Phage-1642 (peptide-92 library clone, SEQ ID NO: 1938)] | 0.06 | 1.18 |  |  |  |  |
| PCSDGVAYPWPYCV (Tested as clonal phage supernatant) [Phage-1638 (peptide-92 library clone, SEQ ID NO: 1934)] | 0.06 | 1.2 |  |  |  |  |
| SCSAGAGWAWPMCF (Tested as clonal phage supernatant) [Phage-1643 (peptide-92 library clone, SEQ ID NO: 1939)] | 0.08 | 1.16 |  |  |  |  |
| LCSAGAMYPWPVCL (Tested as clonal phage supernatant) [Phage-1640 (peptide-92 library clone, SEQ ID NO: 1936)] | 0.08 | 1.19 |  |  |  |  |
| LCAAVFAYTWPMCF (tested as crude phage supernatant) [Phage-1667] |  |  |  |  | 0.07 | 0.98 |
| SCAAVFSFNWPECF (tested as crude phage supernatant) [Phage-1663] |  |  |  |  | 0.07 | 1.01 |
| TCAAGANWPWPECL (Tested as clonal phage supernatant) [Phage-1636 (peptide-92 library clone, SEQ ID NO: 1932)] | 0.08 | 1.21 |  |  |  |  |
| TCSAGATYSWPYCL (Tested as clonal phage supernatant) [Phage-1633 (peptide-92 library clone, SEQ ID NO: 1929)] | 0.07 | 1.22 |  |  |  |  |
| TCAAGATYNWPWCF [Phage-1654] |  |  | 0.07 | 1.07 |  |  |
| PCAAGAQWSWPMCL [Phage-1656] |  |  | 0.09 | 1.07 |  |  |
| TCSAGAHYEWPKCL [Phage-1649] |  |  | 0.07 | 1.12 |  |  |
| SCAAGAHWSWPACL (tested as crude phage supernatant) [Phage-1670] |  |  |  |  | 0.06 | 0.97 |
| SCTAGFRIHWPMCF [Phage-1659] |  |  | 0.12 | 1.06 |  |  |
| PCAAGAHYVWPVCF (tested as crude phage supernatant) [Phage-1668] |  |  |  |  | 0.06 | 0.97 |
| SCSAGATWAWPQCF (Tested as clonal phage supernatant) [Phage-1641 (peptide-92 library clone, SEQ ID NO: 1937)] | 0.08 | 1.19 |  |  |  |  |
| VCAAGAAYPWPACL (tested as crude phage supernatant) [Phage-1673] |  |  |  |  | 0.07 | 0.93 |
| SCTAVFSYALSPCF (tested as crude phage supernatant) [Phage-1666] |  |  |  |  | 0.05 | 0.99 |
| TCAAGATYSWPSCF [Phage-1651] |  |  | 0.07 | 1.1 |  |  |

| Binder | Anti-CD28 Fab signal in the presence of CD28 (phage binding ELISA) [1] | Anti-CD28 Fab signal (phage binding ELISA) [2] | Anti-CD28 Fab signal in the presence of CD28 [3] | Anti-CD28 Fab (SEQ ID NOs: 696, 697) signal [4] | Anti-CD28 Fab signal in the presence of CD28 [5] | Anti-CD28 Fab (SEQ ID NOs: 696, 697) signal [6] |
| --- | --- | --- | --- | --- | --- | --- |
| TCAAGANYSWPACL (Tested as clonal phage supernatant) [Phage-1646 (peptide-92 library clone, SEQ ID NO: 1942)] | 0.08 | 1.14 |  |  |  |  |
| TCAAGANYAWPVCL [Phage-1652] |  |  | 0.13 | 1.09 |  |  |
| MCAAGAMYNWPLCL (tested as crude phage supernatant) [Phage-1671] |  |  |  |  | 0.09 | 0.95 |
| SCAAGASYSWPLCF (tested as crude phage supernatant) [Phage-1672] |  |  |  |  | 0.08 | 0.95 |
| TCAAGAHYEWPQCF [Phage-1653] |  |  | 0.06 | 1.08 |  |  |
| TCSAGATYSWPSCF (Tested as clonal phage supernatant) [Phage-1634 (peptide-92 library clone, SEQ ID NO: 1930)] | 0.09 | 1.21 |  |  |  |  |
| LCAAGATYPWPDCV (Tested as clonal phage supernatant) [Phage-1635 (peptide-92 library clone, SEQ ID NO: 1931)] | 0.05 | 1.21 |  |  |  |  |
| SCAAGAAYAWPWCL [Phage-1660] |  |  | 0.07 | 1.05 |  |  |
| WCSEVFSYPWPACL (tested as crude phage supernatant) [Phage-1665] |  |  |  |  | 0.06 | 0.99 |
| TCSAGATYTWPVCF [Phage-1648] |  |  | 0.06 | 1.13 |  |  |
| LCEEFFHYSWPLCL (Tested as clonal phage supernatant) [Phage-1637 (peptide-92 library clone, SEQ ID NO: 1933)] | 0.06 | 1.21 |  |  |  |  |
| SCAAGFDYGWPMCL (Tested as clonal phage supernatant) [Phage-1644 (peptide-92 library clone, SEQ ID NO: 1940)] | 0.06 | 1.16 |  |  |  |  |
| TCSAGAHYPWPMCL (tested as crude phage supernatant) [Phage-1674] |  |  |  |  | 0.06 | 0.93 |
| TCSAGASYSWPYCM (tested as crude phage supernatant) [Phage-1664] |  |  |  |  | 0.07 | 1 |
| SCADGFNYVWPLCF (Tested as clonal phage supernatant) [Phage-1645 (peptide-92 library clone, SEQ ID NO: 1941)] | 0.08 | 1.14 |  |  |  |  |
| MCTAGFSFNWPECL (tested as crude phage supernatant) [Phage-1661] |  |  |  |  | 0.07 | 1.05 |
| TCSAGATYKWPTCL (tested as crude phage supernatant) [Phage-1669] |  |  |  |  | 0.07 | 0.97 |
| SCAAGSTWAWPACL [Phage-1657] |  |  | 0.07 | 1.07 |  |  |
| SCAAGFHYEWPQCF [Phage-1658] |  |  | 0.06 | 1.06 |  |  |
| TCAAGATWTWPTCM [Phage-1655] |  |  | 0.06 | 1.07 |  |  |
| LCDQFFHYNWPACL (tested as crude phage supernatant) [Phage-1662] |  |  |  |  | 0.05 | 1.04 |
